Data: patent US20150086555A1 (THERACLONE SCIENCES, published 2015)

What was measured:
[1] = molecular target: recombinant soluble homotrimeric HA of A/California/4/09 (H1N1) (Influenza A virus …); experiment: HA microarray, BCC supernatant
[2] = molecular target: recombinant soluble homotrimeric HA of A/Egypt/3300-NAMRU3/08 (H5N1) (Influenza A virus …); experiment: HA microarray, BCC supernatant
[3] = molecular target: recombinant soluble homotrimeric HA of A/chicken/Vietnam/NCVD-016/08 (H5N1) (Influenza A virus …); experiment: HA microarray, BCC supernatant
[4] = molecular target: recombinant soluble homotrimeric HA of A/Solomon Islands/3/06 (H1N1) (Influenza A virus A/Solomon …); experiment: HA microarray, BCC supernatant
[5] = molecular target: recombinant soluble homotrimeric HA of A/Wisconsin/67/05 (H3N2) (Influenza A virus …); experiment: HA microarray, BCC supernatant
[6] = molecular target: recombinant soluble homotrimeric HA of A/Hong Kong/2108/03 (H9N2) (Influenza A virus A/HK/2108/2003(H9N2)); experiment: HA microarray, BCC supernatant
[7] = molecular target: recombinant soluble homotrimeric HA of A/Japan/305/57 (H2N2) (Influenza A virus A/Japan/305/1957(H2N2)); experiment: HA microarray, BCC supernatant
[8] = molecular target: recombinant soluble homotrimeric HA of A/duck/Yangzhou/02/05 (H8N4) (Influenza A virus …); experiment: HA microarray, BCC supernatant
[9] = molecular target: recombinant soluble homotrimeric HA of A/Indonesia/5/05 (H5N1) (Influenza A virus …); experiment: HA microarray, BCC supernatant
[10] = molecular target: recombinant soluble homotrimeric HA of A/northern shoveler/California/HKWF115/07 (H6) (Influenza A virus A/northern …); experiment: HA microarray, BCC supernatant
[11] = molecular target: recombinant soluble homotrimeric HA of A/Netherlands/219/03 (H7N7) (Influenza A virus …); experiment: HA microarray, BCC supernatant
[12] = molecular target: recombinant soluble homotrimeric HA of A/Vietnam/1203/04 (H5N1) (Influenza A virus …); experiment: HA microarray, BCC supernatant
[13] = molecular target: recombinant soluble homotrimeric HA of A/Anhui/1/05 (H5N1) (Influenza A virus A/Anhui/1/2005(H5N1)); experiment: HA microarray, BCC supernatant
[14] = molecular target: recombinant soluble homotrimeric HA of A/swine/Ontario/01911-2/99 (H4N6) (Influenza A virus …); experiment: HA microarray, BCC supernatant
[15] = molecular target: T1, hemagglutinin (HA) of influenza A/Japan/305/57 (H2N2) on whole virions (Influenza A virus A/Japan/305/1957(H2N2), UniProt P03451 16-562); experiment: ELISA; BCC supernatant on coated inactivated whole virions
[16] = molecular target: T1, hemagglutinin (HA) of influenza …; experiment: ELISA, purified IgG on inactivated whole virions

Row | Binder | Trimeric HA Binding: RLU [1] [RLU] | Trimeric HA Binding: RLU [2] [RLU] | Trimeric HA Binding: RLU [3] [RLU] | Trimeric HA Binding: RLU [4] [RLU] | Trimeric HA Binding: RLU [5] [RLU] | Trimeric HA Binding: RLU [6] [RLU] | Trimeric HA Binding: RLU [7] [RLU] | Trimeric HA Binding: RLU [8] [RLU] | Trimeric HA Binding: RLU [9] [RLU] | Trimeric HA Binding: RLU [10] [RLU] | Trimeric HA Binding: RLU [11] [RLU] | Trimeric HA Binding: RLU [12] [RLU] | Trimeric HA Binding: RLU [13] [RLU] | Trimeric HA Binding: RLU [14] [RLU] | ELISA virus binding (OD450) [15] [OD450] | binding result [16]
1 | TCN-533 (5256_A17a) (antibody, V domains shown) VH: QVQLVQSGADVKKPGSSVTVSCKASGGSFSNYGINWVRQAPGQGLEWMGGIIPLINAPNYAPKFQGRVTITADMFSNIVSLQLTSLRTDDTAVYYCARRKMTTAIDYWGQGTLVTVSS VL: QPVLTQPPSASASLGASVTLTCTLSSAYSNYKVDWYQQRPGKGPRFVMRVGTGGIVGSKGDGIPDRFSVLGSGLNRYLTIKNIQEEDESDYHCGADHGSGSNFVSPYVFGGGTKLTVL | 29300 | 34300 | 47700 | 39200 | 13800 | 172 | 10800 | 24700 | 44100 | 41400 | 2470 | 5680 | 8060 | 1580 |  | 
2 | TCN-532 (5262_H18) (antibody, V domains shown) VH: QVQLQESGPGLVKPSETLSLTCTVSGGSVSSETYYWSWIRQPPGKGLEWIGYIYYIGNTDYRPSLKSRVTISLDTSKNQFSLKLSSVTAADTAVYYCARGAYYDSSGYPAFYIWGQGTMVTVSS VL: QSVLTQPPSVSGAPGQRVTISCTGSSSNIGSDYDVHWYKQLPGTAPKLLIFGNSNRPSGVPDRFSGSKSGTSASLAITGLQAEDEADYYCQSYDSSLSGFHVFGSGTKVTVL |  |  |  |  |  |  |  |  |  |  |  |  |  |  | 0.07 | no binding
